Where two headings read alike, the source gives them in different places.
Key:
[1] = molecular target: C3d C3d (Homo sapiens) (UniProt P01024); details: cited from earlier work
[2] = molecular target: complement C3b (human) (UniProt P01024)
[3] = molecular target: C3d C3d (Homo sapiens) (UniProt P01024); details: cited from earlier work; remark: listed apart in the source

Sequence of C3d C3d (Homo sapiens) (P01024 1002-1303): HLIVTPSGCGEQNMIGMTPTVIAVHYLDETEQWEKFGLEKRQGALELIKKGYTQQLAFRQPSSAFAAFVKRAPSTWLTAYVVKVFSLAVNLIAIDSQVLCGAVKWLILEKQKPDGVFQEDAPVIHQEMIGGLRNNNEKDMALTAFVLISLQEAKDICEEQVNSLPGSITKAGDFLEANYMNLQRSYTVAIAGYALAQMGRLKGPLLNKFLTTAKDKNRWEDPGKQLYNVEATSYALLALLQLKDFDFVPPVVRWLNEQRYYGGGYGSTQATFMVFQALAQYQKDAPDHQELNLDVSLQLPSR
Sequence of Efb Efb-C (P68799 101-165): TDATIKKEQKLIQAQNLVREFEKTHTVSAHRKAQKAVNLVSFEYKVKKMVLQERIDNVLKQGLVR
Sequence of Efb-C (domain or fragment) (A6QG59 101-165 limits assumed): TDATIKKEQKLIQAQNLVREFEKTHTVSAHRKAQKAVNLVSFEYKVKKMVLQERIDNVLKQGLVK

| Substance | C3b left on serum-opsonized S. aureus after plasmin with 2 µM fragment, flow cytometry (amount without plasmin set to 100%) [2] [%] | also measured |
| --- | --- | --- |
| Efb Efb-C (from UniProt P68799) |  | Kd [1]: 0.8 nM |
| Efb-C (domain or fragment) | 38 |  |
| Sbi 3–4 (domain or fragment) | 50 |  |
| Sbi domains 3-4 (from UniProt A7X659) |  | Kd [3]: 1400 nM |

Reference: publication PMC3469469
